For one data set, the system named is native human calpain I. Briefly: Calcium-dependent protease activity (Succ-Leu-Tyr-AMC), native calpain I. The format is biochemical. To be noted: 1 mM Succ-Leu-Tyr-AMC, 5 mM CaCl2; FIG. 5a. As to the method:
(§1) Sf21 cells were again seeded in 24 well plates at 1.5×10^5 cells/cm^2 and infected with either wild-type virus, coinfected with both AcNPV-hCANP30-5 and AcNPV-hCANPI80-5 (MOI of 5 for each virus), or infected with AcNPV-hCANPI-2-5 (MOI=5.7). The intracellular proteins were harvested at 40 hours after infection with 100 μl/well of the following lysis buffer: 50 mM Tris-HCl, pH 7.5, 50 mM NaCl, 1 mM EDTA, 1 mM EGTA, 5 mM β-mercaptoethanol, 0.1% Triton-100, followed by a 10 minutes centrifugation at 14,000×g at 4° C. to pellet the nuclei and some membranes. The in vitro enzyme activity of 20 μl of each extract (12.5-20 μg of total protein) was measured using the synthetic peptide substrate succinyl-leucine-tyrosine-aminomethyl coumarin (Succ-Leu-Tyr-AMC) at a 1 mM concentration with and without the addition of 5 mM CaCl2 following the procedure of Sasaki et al., J. Biol. Chem., 259:12489-12494 (1984), incorporated herein by reference. The activity obtained was compared with the enzyme activity of 2 μg of partially-purified native human calpain I produced according to the method of Siman et al., supra.
(§2) The activity in the presence of calcium was also measured with the addition of 12.5 μM calpain inhibitor I following the procedure disclosed in Sasaki et al., supra. The results are depicted in FIGS. 5a-d. In FIGS. 5a-d, open circles represent activity without calcium present. […]

The test system of data set [1] is 80 kDa subunit of recombinant calpain I. Briefly: Autolytic processing of the 80 kDa subunit to the 76 kDa form (immunoblot). Type of data set: biochemical, human. Conditions: 6.7 mM CaCl2, 5 minutes, room temperature. As to the method: The 76 kDa form is produced in the presence of calcium by autolytic cleavage and is indicative of active enzyme. Lysates from cells either infected with wild-type AcNPV, coinfected with both AcNPV-hCANP30-5 and AcNPV-hCANPI80-5 or infected with AcNPV-hCANPI-2-5 prepared in Example 5 were incubated with or without the addition of 6.7 mM
CaCl2 for 5 minutes at room temperature, stopping the reaction by adding 6.7 mM EDTA and boiling the samples in SDS-PAGE-gel-loading buffer prior to storage at -70° C. The results of PAGE of the preparations are depicted in FIGS. 6a and b. In FIGS. 6a and b, the presence and absence of calcium is indicated by a "+" or "-", respectively. […] A single band is detected in all the samples incubated with calcium (lanes 2,5, and 7), and it comigrates with the 76 kDa native human calpain I (lane 2) that has also been incubated with calcium.
FIG. 6b contains the results of an immunoblot analysis of the same samples as in 6a except that the AB#34 antibody used was generated against the first five amino acids at the N-terminus of the 76 kDa fragment (anti-LGRHEC); (Saido et al., J. Biochem. 111:81-96 (1992)). […] Both the small amounts of the endogenously-cleaved recombinant calpain I large subunit and the single abundant 76 kDa band after the addition of calcium are detected by this antiserum.
A general note: A western blot detects proteins with antibodies after separation by electrophoresis.

The target of data set [2] is T1, recombinant human calpain I (Homo sapiens, UniProt P07384).
T1 construct: the 2153 bp fragment containing the entire human 80 kDa calpain I cDNA; made in house; host or cells: Spodoptera frugiperda Sf21 cells, recombinant baculovirus (AcNPV-hCANPI-2-5, or coinfection with AcNPV-hCANP30-5 and AcNPV-hCANPI80-5)
T1 sequence (P07384 2-714): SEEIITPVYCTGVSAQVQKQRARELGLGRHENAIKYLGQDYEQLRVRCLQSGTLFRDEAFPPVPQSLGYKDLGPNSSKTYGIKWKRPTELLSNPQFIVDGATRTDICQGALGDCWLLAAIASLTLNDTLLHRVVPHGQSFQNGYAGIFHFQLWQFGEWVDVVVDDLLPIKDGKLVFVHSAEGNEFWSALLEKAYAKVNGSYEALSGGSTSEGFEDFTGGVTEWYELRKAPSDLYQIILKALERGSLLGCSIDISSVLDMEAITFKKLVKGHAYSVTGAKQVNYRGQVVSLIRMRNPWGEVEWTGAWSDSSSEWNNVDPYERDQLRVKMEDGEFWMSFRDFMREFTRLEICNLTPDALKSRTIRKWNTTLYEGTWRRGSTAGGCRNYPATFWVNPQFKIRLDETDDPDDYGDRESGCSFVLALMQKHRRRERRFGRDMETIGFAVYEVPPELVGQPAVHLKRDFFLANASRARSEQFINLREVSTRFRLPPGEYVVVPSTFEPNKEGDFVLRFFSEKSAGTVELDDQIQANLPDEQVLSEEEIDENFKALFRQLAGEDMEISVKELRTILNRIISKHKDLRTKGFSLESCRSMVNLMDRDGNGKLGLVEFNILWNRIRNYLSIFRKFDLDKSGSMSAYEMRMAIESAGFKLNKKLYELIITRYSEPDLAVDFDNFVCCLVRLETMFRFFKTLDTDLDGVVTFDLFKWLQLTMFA
T1 sequence (P04632 1-268 partner): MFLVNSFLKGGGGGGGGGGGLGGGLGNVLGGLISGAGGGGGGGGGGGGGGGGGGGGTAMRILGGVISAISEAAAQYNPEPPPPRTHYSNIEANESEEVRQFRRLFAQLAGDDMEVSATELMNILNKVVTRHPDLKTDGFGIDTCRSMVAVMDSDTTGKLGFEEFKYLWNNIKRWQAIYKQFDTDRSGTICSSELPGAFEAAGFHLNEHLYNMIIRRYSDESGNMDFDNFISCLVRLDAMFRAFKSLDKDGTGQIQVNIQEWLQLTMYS
Briefly: Calcium-dependent protease activity (Succ-Leu-Tyr-AMC), recombinant calpain in Sf21 cell extracts. The format is biochemical. As to the method:
as §1, §2

For data set [3], the system named is recombinant 80 kDa subunit of calpain I. Briefly: Enzymatic activity of independently expressed 80 kDa subunit (Succ-Leu-Tyr-AMC). The format is biochemical, human. As to the method: as §1
To determine the relative activity of the recombinantly produced 80 kDasubunit, the enzymatic activity of the subunit was examined in unfractionated extracts from Sf21 cells infected with AcNPV-hCANPI80-5. […] The same amount of enzyme activity for both the recombinant 80 kDa subunit and the recombinant calpain was then run on SDS-PAGE and the amount of each was qualitatively determined by immunoblot analysis as described in Example 4 above. As determined therefrom, approximately 4- to 5-fold more isolated 80 kDa protein is needed to give activity equivalent to that of the heterodimeric protein. Thus, the specific activity of the 80 kDa recombinant calpain I was experimentally determined to be approximately 20-25% that of the heterodimeric calpain I. This is approximately seven times greater than that of the 80 kDa subunit dissociated from native calpain I (Kikuchi et al., supra).

B1: native human calpain I: partially-purified native human calpain I (protein, UniProt P07384 2-714; P04632 1-268, looked up)
Calpain-1 catalytic subunit: T1 sequence (P07384 2-714)
Calpain small subunit 1: T1 sequence (P04632 1-268 partner)
B1: in the data set on native human calpain I, the “calcium-dependent substrate hydrolysis” value was “calcium-dependent increase in substrate hydrolysis”.

B2: recombinantly produced calpain: recombinant enzymatically active human calpain I, heterodimer of 80 kDa and 30 kDa subunits, expressed in a baculovirus-insect cell system (protein, UniProt P07384 2-714; P04632 1-268, looked up)
Calpain-1 catalytic subunit: T1 sequence (P07384 2-714)
Calpain small subunit 1: T1 sequence (P04632 1-268 partner)
On to B2, for which the “autocatalytic activation by added calcium” value in data set [1] was “correctly autoprocessed the 80 kDa subunit to the "activated" 76 kDa form”. For the same molecule, in data set [2] (1 mM Succ-Leu-Tyr-AMC, 5 mM CaCl2, FIGS. 5c, 5d), the “calcium-dependent substrate hydrolysis” value is recorded as “calcium-dependent increase in substrate hydrolysis”. In data set [2] (data not shown), the “specific activity compared with native calpain” value was “similar”.

B3: 80 kDa recombinant calpain I: recombinant 80 kDa subunit of human calpain I expressed in Sf21 cells infected with AcNPV-hCANPI80-5 (protein, UniProt P07384 2-714, looked up)
Calpain-1 catalytic subunit: T1 sequence (P07384 2-714)
For the molecule B3, the “autocatalytic activation by added calcium” value in data set [1] is recorded as “entire amount of the 80 kDa subunit recombinant protein is capable of being autocatalytically activated”. In addition, the “specific activity relative to heterodimeric calpain I” value in data set [3] (80 kDa subunit alone vs recombinant heterodimer) is on record as 20-25%. Also, the “specific activity relative to 80 kDa subunit dissociated from native calpain I” value in data set [3] (comparison with Kikuchi et al.) was “approximately seven”. Moreover, the “amount of protein needed to give activity equivalent to heterodimeric protein” value in data set [3] (isolated 80 kDa protein vs heterodimer) is 4- to 5 fold.

The record behind these values is patent US5869336A, “Recombinant enzymatically active calpain expressed in a baculovirus system” (Cephalon, Inc., priority 1997, dated 1999).
